Measurements as given in patent publication US20220259593A1, “CONTROL OF MAMMALIAN GENE DOSAGE USING CRISPR” (The Regents of the University of California, priority 2019, published 2022).

Test system: K562 CRISPRi cells
Experiment: Constant region variant library pooled growth screen, K562
Format: cell-based, human
Conditions: sgRNA constant region variants
Summary of the method: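 Cells were selected with puromycin for 2 days and then kept in RPMI-1640 spinner cultures, with duplicates handled separately. Targeting sequences comprised 3 sgRNAs per essential gene for 10 genes plus six non-targeting controls. Activities were normalized against pairing with the unmodified scaffold.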

[1] = activity relative to the unmodified constant region cr995
[2] = activity relative to the original, un-modified constant region cr995

Molecule	Mean relative activity [1]	Mean relative activity [2]
cr872 (nucleic acid, listed as DNA, chemistry not fully specified) guide: GTTTAAGAGCTAAGCTGGAAACAGCATAGCAAGTTTAAATAAGGCTATTCCGTTATCAACTTGAAAAAGTGGCACCGAGTCGGTGCT	0.1317	–
cr821 (nucleic acid, listed as DNA, chemistry not fully specified) guide: GTTTAAGAGCTAAGCTGGAAACAGCGTAGCAAGTTTAAATAAGGCTAGTCCGTTATCAACTTGAAAAAGTGGCACCGAGTCGGTGCT	–	1.038
cr739 (nucleic acid, listed as DNA, chemistry not fully specified) guide: GTTTAAGAGCTAAGCTGGAAACAGCATAGCAACTTTAAATAAGGCTAGTCCGTTATCAACGTGAAAACGTGGCACCGAGTCGGTGCT	–	0.08764
cr714 (nucleic acid, listed as DNA, chemistry not fully specified) guide: GTTTAAGAGCTAAGCTGGAAACAGCATAGCAAGCTTAAATAAGGCTAGTCCGTTATCAAATTGAAAAATTGGCACCGAGTCGGTGCT	–	0.09294
cr580 (nucleic acid, listed as DNA, chemistry not fully specified) guide: GTTTAAGAGCTAAGCTGGAAACAGCATAGCAAGTTTAGATAAGGCTAGTCCGTTATCAACTTGAAAAAGTGGCACCGAGTCGGTGCT	–	0.1076
cr513 (nucleic acid, listed as DNA, chemistry not fully specified) guide: GTTTAAGAGCTAAGCTGGAAACAGCATAGCAACTTTAAATAAGGCTAGTCCGTTATCACCTTGAAAAAGGGGCACCGAGTCGGTGCT	–	0.0947
cr066 (nucleic acid, listed as DNA, chemistry not fully specified) guide: ATTCAAGAGCTAAGCTGGAAACAGCATAGCAAGTTTAAATAAGGCTAGTCCGTTATCAACTTGAAAAAGTGGCACCGAGTCGGTGCT	–	0.09115
cr791 (nucleic acid, listed as DNA, chemistry not fully specified) guide: GTTTAAGAGCTAAGCTGGAAACAGCATAGCAAGTTTAAATAAAGCTAGTCTGTTATCAACTTGAAAAAGTGGCACCCAGTGGGTGCT	–	0.07648
cr062 (nucleic acid, listed as DNA, chemistry not fully specified) guide: GTTCAAGTGCTAAGCTGGAAACAGCATAGCAAGTTTAAATAAGGCTAGTCCGTTATCAACTTGAAAAAGTGGCACCGAGTCGGTGCT	–	0.1003
cr274 (nucleic acid, listed as DNA, chemistry not fully specified) guide: GTTTAAGAGCTAAGCTGGAAACAGCATAGCAACTTTAAATAAGGCTAGTCCGTTATCAACCTGAAAAGGTGGCACCGAGTCGGTGCT	0.1303	–
cr290 (nucleic acid, listed as DNA, chemistry not fully specified) guide: GTTTAAGAGCTAAGCTGGAAACAGCATAGCAAGTTTAAATAAGGCTAGTCCATTATCAACTTGAAAAAGTTGCACCGAGTCGGTGCT	–	0.1027
cr401 (nucleic acid, listed as DNA, chemistry not fully specified) guide: GTTTAAGAGCTAAGCTGGAAACAGCATAGCAAGTTTAAATAAGGCTAGTCCGTTATCAACTTGAAAAAGTGGCTCCGAGTCTGCGCT	–	0.09781
cr259 (nucleic acid, listed as DNA, chemistry not fully specified) guide: GTTTAAGAGCTAAGCTGGAAACAGCATAGCAAGTTTAAATAAGGCTAGTCCGTTATGTACTTCAAAAAGTGGCACCGAGTCGGTGCT	0.1243	–
cr087 (nucleic acid, listed as DNA, chemistry not fully specified) guide: CTTTGAGAGCTAAGCTGGAAACAGCATAGCAAGTTTAAATAAGGCTAGTCCGTTATCAACTTGAAAAAGTGGCACCGAGTCGGTGCT	–	0.1041
cr084 (nucleic acid, listed as DNA, chemistry not fully specified) guide: GTCTGAGAGCTAAGCTGGAAACAGCATAGCAAGTTTAAATAAGGCTAGTCCGTTATCAACTTGAAAAAGTGGCACCGAGTCGGTGCT	–	0.09372
cr461 (nucleic acid, listed as DNA, chemistry not fully specified) guide: GTTTAAGAGCTAAGCTGGAAACAGCATAGCAAGTTTAAATAAGGCTAGTCCTTAATCAACTTGAAGAAGTGGCACCGAGTCGGTGCT	0.1147	–
cr538 (nucleic acid, listed as DNA, chemistry not fully specified) guide: GTTTAAGAGCTAAGCTGGAAACAGCATAGCAAGCTTAAATAAGACTAGTTCGTTATCAACTTGAAAAAGTGGCACCGAGTCGGTGCT	–	0.1104
cr089 (nucleic acid, listed as DNA, chemistry not fully specified) guide: GTTTATAAGCTAAGCTGGAAACAGCATAGCAAGTTTAAATAAGGCTAGTCCGTTATCAACTTGAAAAAGTGGCACCGAGTCGGTGCT	0.1183	–
cr112 (nucleic acid, listed as DNA, chemistry not fully specified) guide: GTTTAAGAGCTAAGCTGGAAACAGCATAGCAAGTTTAAATAAAGTTAATCTGTTATCAATTTGAAAAAATGGCACCGAGTCGGTGCT	–	0.0933
cr483 (nucleic acid, listed as DNA, chemistry not fully specified) guide: GTTTAAGAGCTAAGCTGGAAACAGCATAGCAAGTTTAAATAAGGCTAGTCCGTTATCAACTAGAAATAGTGGCGTCGAGTCGACGCT	–	1.037
cr490 (nucleic acid, listed as DNA, chemistry not fully specified) guide: GTTTAAGAGCTAAGCTGGAAACAGCATAGCAAGTTTAAATAAGGCTAGTCCGTTATCAAATTGAAAAATTGGCGCCCAGTGGGCGCT	0.1317	–
cr453 (nucleic acid, listed as DNA, chemistry not fully specified) guide: GTTTAAGAGCTAAGCTGGAAACAGCATAGCAAGTTTAACTAAGGCTAGTCCGTTATCAACTTGAAAAAGTGGCACCGAGTCGGTGCT	–	0.09528
cr762 (nucleic acid, listed as DNA, chemistry not fully specified) guide: GTTTAAGAGCTAAGCTGGAAACAGCATAGCACGTTTAAATAAGGCTAGTCCTTTATCAACTTGAAAAAGTGGCACCGAGTCGGTGCT	–	0.0885
cr257 (nucleic acid, listed as DNA, chemistry not fully specified) guide: GTTTAAGAGCTAAGCTGGAAACAGCATAGCAAGTTTAAATCAGGCTAGTCCGTTATCAACTTGAAAAAGTTGCACCGAGTCGGTGCT	0.1109	–
cr411 (nucleic acid, listed as DNA, chemistry not fully specified) guide: GTTTAAGAGCTAAGCTGGAAACAGCATAGCAAGTTTAAATAAGACTAGTCCGTTATCAACTTGAAAAAGTGGCACCGAGTCGGTGCT	–	0.1086
cr727 (nucleic acid, listed as DNA, chemistry not fully specified) guide: GTTTAAGAGCTAAGCTGGAAACAGCATAGCAAGTTTAAATAAGGCTAGTCCGTTATCAACTTGAAAAAGTGTCGCCGAGTCGGCGAT	–	1.037
cr325 (nucleic acid, listed as DNA, chemistry not fully specified) guide: GTTTAAGAGCTAAGCTGGAAACAGCATAGCAACTTTAAATAAGGCTAGTCCGTTATCAGCTTGAAAAAGCGGCACCGAGTCGGTGCT	–	0.09143
cr796 (nucleic acid, listed as DNA, chemistry not fully specified) guide: GTTTAAGAGCTAAGCTGGAAACAGCATAGCAAGTTAAAATAAGGCTAGTCCGTTATCAACTTGAAAAAGTGGCACCGAGTCGGTGCT	–	0.096
cr059 (nucleic acid, listed as DNA, chemistry not fully specified) guide: GGTTAAAAGCTAAGCTGGAAACAGCATAGCAAGTTTAAATAAGGCTAGTCCGTTATCAACTTGAAAAAGTGGCACCGAGTCGGTGCT	0.1106	–
cr288 (nucleic acid, listed as DNA, chemistry not fully specified) guide: GTTTAAGAGCTAAGCTGGAAACAGCATAGCAACTTTAAATAAGGCTAGTCCGTTATCAACTGGAAACAGTGGCACCGAGTCGGTGCT	–	0.1016
